B1: Hammerhead Ribozyme (parent)
chain: ACCGGAUGUGCUUUCCGGUCUGAUGAGUCCGUGAGGACGAAACAG

Variants of: B1
Experiment: self-cleavage, relative activity (ratio to wild type); higher = more cleavage; co-transcriptional

First: ACCGGAUGUGCUUUCCGGUCUGAUGUCUCCGUGAGGACGAAACAG [A26U G27C]
Second: ACCGGAUGUGCUUUCCCGUCUGAUGAGUCCGUGACGACGAAACAG [G17C G35C]
The self-cleavage of the first is lower: 0.317 for the first, 0.403 for the second.

Going from ACCGGAUGUGCUUUCCGGUCUGAUGAGUCCGUUAGCACGAAACAG [G33U G36C] to AUCGGAAGUGCUUUCCGGUCUGAUGAGUCCGUGAGGACGAAACAG [C2U U7A], the self-cleavage rises from 0.623 to 1.58.

Going from ACAGGAUGUGCUUUCCGGUCUGAUGAGUCCGUGAGGACGAAACAU [C3A G45U] to ACCGCAUGUGCUUUCCGGUCUGAUGAGUCCGUGAGAACGAAACAG [G5C G36A], the self-cleavage falls from 0.448 to 0.35.

First: ACCGGAUGUGCUUUCCAGUCUGAUGAGUCCGUGAGGACGAAACAU [G17A G45U]
Second: ACCGGAUGUCCUUUCCGGUCUGAUGAGUCCGUGAGGACGAACCAG [G10C A42C]
The self-cleavage of the first is higher: 0.411 for the first, 0.34 for the second.

First: ACCGUAUGUGCUUUCCGGUCUGAUGAGUCAGUGAGGACGAAACAG [G5U C30A]
Second: ACCGGAUGUGCUUUCCGGUCUCAUGAGUCCGUGAGGACGAAACAA [G22C G45A]
The self-cleavage of the first is higher: 0.795 for the first, 0.328 for the second.

First: ACCGGAUGUGCUUUCCGGUCUGAUGAGUCCGUGGGGACGAAAAAG [A34G C43A]
Second: ACCGGAUGAGCUUUCCGGUCUGAUGAGUCCGUGAGGACGGAACAG [U9A A40G]
The self-cleavage of the first is lower: 0.32 for the first, 0.349 for the second.

Compared with AGCGGAUGUGCUUUCGGGUCUGAUGAGUCCGUGAGGACGAAACAG [C2G C16G], ACCGGAUGAGCUUUCCGGUCUGAUGAGUCCGUGAGGACGAUACAG [U9A A41U] is higher in self-cleavage: 0.294 for the first, 0.37 for the second.

Compared with ACCGGAUGUGCUUUACGGUCUGAUGAGUCCGUGAGGACAAAACAG [C15A G39A], ACCGGAUGCGCUUUCCGGUCUGAGGAGUCCGUGAGGACGAAACAG [U9C U24G] is higher in self-cleavage: 0.337 for the first, 0.948 for the second.

First: UCCGGAUGUGCUUUCCGGUCUGAUGAGUGCGUGAGGACGAAACAG [A1U C29G]
Second: ACCGGAUGUGCGUUCCGGUCUGAUGAGUCCGUGAAGACGAAACAG [U12G G35A]
The self-cleavage of the first is lower: 0.448 for the first, 0.674 for the second.

Going from ACCGGAUGUGCUUUCCGCUCAGAUGAGUCCGUGAGGACGAAACAG [G18C U21A] to GCCGGAUGUGCUUUCCGGUCUGAUGAGUCUGUGAGGACGAAACAG [A1G C30U], the self-cleavage rises from 0.333 to 1.84.

First: ACCGGAUGUGCUUUCCGGUAUGAUGAGUCCGUGAGGAGGAAACAG [C20A C38G]
Second: ACCGGAUGUGCUUUCCGGUCUGGUGAGUCCGAGAGGACGAAACAG [A23G U32A]
The self-cleavage of the first is higher: 0.429 for the first, 0.387 for the second.

First: ACCGGACGUGCUUUCCGGUCUGAUGAGGCCGUGAGGACGAAACAG [U7C U28G]
Second: ACCGGAUGUGCAUUCCGGUCUGAUGAGUCCGUGGGGACGAAACAG [U12A A34G]
The self-cleavage of the first is lower: 0.538 for the first, 0.904 for the second.

Compared with ACCGGAUGUGCUUUCCGGUCUGAUGAGUCCGUGAGGACGGAACAA [A40G G45A], ACCGGAUGUGCUUUCCGGUCUGAUGAGUCCUUGAGGAUGAAACAG [G31U C38U] is higher in self-cleavage: 0.441 for the first, 0.801 for the second.

First: ACCGGAUGUGCUUCCCGGUCUGAUUAGUCCGUGAGGACGAAACAG [U14C G25U]
Second: ACAGGAUGUGCUUUCCGGUCUGAUGAGUCCGUGAGAACGAAACAG [C3A G36A]
The self-cleavage of the first is higher: 0.32 for the first, 0.287 for the second.

Compared with ACCGGAUGUGCUUUCCGGUCUGAUGAGUCCCUGUGGACGAAACAG [G31C A34U], ACCGGAUGUGCUUUCCGGUCUGAUGAGUCCGUGACGACGGAACAG [G35C A40G] is lower in self-cleavage: 0.68 for the first, 0.28 for the second.

Going from ACCGGACGUGCUUUCCGGUCUGAUGAGUCCGUGAGGACGAAACAU [U7C G45U] to ACCGGAUGUGCUUUCCGGUCUGAUGAGUACGUGAGGACGAAACGG [C29A A44G], the self-cleavage rises from 0.622 to 0.765.

Compared with ACCGGAUGUGCUUUCCGGUCUGAUGUGUCCGUGAGGACGAAACGG [A26U A44G], ACAUGAUGUGCUUUCCGGUCUGAUGAGUCCGUGAGGACGAAACAG [C3A G4U] is lower in self-cleavage: 1.04 for the first, 0.282 for the second.

Compared with ACCGGAUGUGCUUUCCGGUCUGAUGAGUCCGUGGGAACGAAACAG [A34G G36A], ACCGGAUGUGCUUAGCGGUCUGAUGAGUCCGUGAGGACGAAACAG [U14A C15G] is higher in self-cleavage: 0.51 for the first, 0.722 for the second.

Compared with ACAGGAUGUGUUUUCCGGUCUGAUGAGUCCGUGAGGACGAAACAG [C3A C11U], ACCGGAUGUGCUUUCCGGUCUGAUGAGUCCGUGAGGAUGAACCAG [C38U A42C] is higher in self-cleavage: 0.358 for the first, 0.396 for the second.

First: ACCGGAUGUGCUUUCCGGUCUGAUGAGACCGUGAUGACGAAACAG [U28A G35U]
Second: ACCGGACCUGCUUUCCGGUCUGAUGAGUCCGUGAGGACGAAACAG [U7C G8C]
The self-cleavage of the first is lower: 0.489 for the first, 0.961 for the second.

Going from ACCGGAUGUGCUUUCCGGUCUGAUCAGUCCGUGAGGACGAUACAG [G25C A41U] to AGGGGAUGUGCUUUCCGGUCUGAUGAGUCCGUGAGGACGAAACAG [C2G C3G], the self-cleavage rises from 0.319 to 0.353.

Going from ACCGGAUGUGCUUUCCGGUCUGAUGAGUCCGUGAGGACGAAACGA [A44G G45A] to ACCGGAUGUGCUUUCCGGUCUGAUGAGUCCGUGACGACGAAGCAG [G35C A42G], the self-cleavage falls from 1.25 to 0.26.

Going from ACCGGAUGUGCUUUCCGGUCUGAUGAGUCCGUCAGGACGAAACAA [G33C G45A] to ACCGGAUGUGCUUUCCGGUCUGAUGAGUCCGUGAGGACGAACAAG [A42C C43A], the self-cleavage falls from 0.873 to 0.368.

Going from ACCGGAUGUGCUUUCCGGUCUGAUGAGUCCGUGAAGACGAAGCAG [G35A A42G] to ACAGGAUGUGCUUUCCGGUCUGAUGAGUCCGUGAGGACGAAAUAG [C3A C43U], the self-cleavage rises from 0.252 to 0.378.

Compared with ACCGGAUGUGCUUUCCGGUCUGAUGAGUCGGUGAGGACGGAACAG [C30G A40G], ACCGGAUGUGCUUUCCGGCCUGAUGAGUCCGUGAGGACUAAACAG [U19C G39U] is lower in self-cleavage: 0.305 for the first, 0.271 for the second.

Compared with ACCGGAUGUGCUUUCCGGUCUGAUGAGUCCGUGAGGACGAAAAAG [C43A], ACCGGAUGUGCUUUCCGGUCCGAUGAGUCCGUGAGGAUGAAACAG [U21C C38U] is higher in self-cleavage: 0.375 for the first, 0.629 for the second.

Compared with ACCGGAUGUGCUUUCCGGUCUGAUGAGUCCGUGUGGACGAAUCAG [A34U A42U], ACCGGAUGUGCUUUCCGGUCUGCUGAGUCCGUGAGGACGAAACUG [A23C A44U] is lower in self-cleavage: 0.306 for the first, 0.227 for the second.

Going from ACCGGAUUUGCUUUCCGGUCUGAUAAGUCCGUGAGGACGAAACAG [G8U G25A] to ACCGGAUGUGCUUUCAGGUCUGAUGAGUCCGUGAGGAGGAAACAG [C16A C38G], the self-cleavage rises from 0.317 to 0.542.

Variant ACUGGAUGUGCUUUCCGGUCUGAUGAGUCCGUGAGGACGAAUCAG [C3U A42U] has a self-cleavage of 0.38.

Reference: the RNAGym collection of RNA variant scans (doi:10.7554/elife.80360)
